Measurements published in paper PMC8786652 (Cell reports, 2022).

Target: recombinant stabilized SARS-CoV-2 Spike ectodomain (S-6P, HexaPro Spike), his-tagged (SARS-CoV-2, Wuhan-Hu-1 (HexaPro …, stabilised))
Assay: SPR

B1: CV3-13 Fab (Fab, V domains shown)
VH: QVQLQQSGPGLVKPSQTLSLTCTVAGGSISSGTYYWSWIRQPAGKGLEWIGRIYTSGSANYNPSLKSRVTISVDTSKNQFSLRLSSVTAEDTAVYYCAREYSSSYYYFYYMDVWGKGTTVTVSS
VL: AIRMTQSPSSLSASVGDRVTITCQASQDISNYLNWYQQKPGKAPKLLIYVASNLETGVPSRFSGSGFGTDFTFTISSLQPEDIATYYCQQFDNLPYTFGQGTKLEIK
  Kd: ~55 nM
